This note sets out measurements from patent publication CN114057887A.

For the experiment, the target named is RBD-His (近岸生物货号:DRA42) (SARS-CoV-2) (UniProt P0DTC2).

“hACE2-Fc融合蛋白 (人ACE2胞外区(ECD)与人IgG1的Fc片段的融合蛋白) (Fc fusion)” showed a 亲和力 of 0.54 nM.
